Molecular target: TCRβ chain of the 5c.c7 TCR (Vβ3) (mouse (T-cells of 5c.c7 TCR transgenic mice))
Experiment: FRET or BRET

FRET yield: 25%
Substance: CD3ε (from UniProt P22646 22-189) (natural protein)
